Substrate in series [1]: COc1ccccc1O
The series can be described thus: Steady-state kinetics of free APEX2 (guaiacol oxidation). The series is classed as biochemical, pea. The note with it: other: free APEX2 10 nM, guaiacol 0.20 to 2.0 mM, H2O2 1 mM, TBS-50/350 pH 8.0, mean with standard error, triplicates, 30.0 °C. The protocol: (§1) For APEX2, all reagents were made to the appropriate working concentrations using TBS-50/350 pH 8.0. Working solutions of guaiacol and H2O2, both at 10 mM, were prepared on the day of assay. The guaiacol solution was shaken vigorously at 30° C. to ensure complete dissolution before equilibration back to room temperature. The assay concentration for APEX2 was 10 nM, H2O2 1 mM and that for guaiacol ranged from 0.20 to 2.0 mM. Total reaction volume was 200 μL. Reactions were monitored by the absorbance of tetraguaiacol formed at 470 nm using a BioTek Synergy™ HT microplate reader. […] This time point was taken for initial rate, V0, measurement. Kinetic constants were obtained using non-linear least square Michaelis-Menten fitting in GraphPad Prism software.
To probe the capacity of the Cso-BMC for encasing enzymes of considerably different molecular sizes, an evolved pea cytosolic ascorbate peroxidase (APEX2), a 27.0 kDa monomer [Lam et al., Nature Methods 12(1): 51-54 (2015)], and E. coli beta-galactosidase (LacZ), a 466.0 kDa homotetramer, were chosen for encapsulation [Golan, et al., Biochimica et Biophysica Acta (BBA)—Bioenergetics, 1293(2): 238-242; Lam et al., Nature Methods 12(1): 51-54 (2015)]. […] Enzymes were also N-terminally tagged with the hexahistidine (Hiss) tag to facilitate downstream removal of unencapsulated enzymes that might co-purify with shells (Nichols, Kennedy, & Tullman-Ercek, 2019). Cso-PSIIH shells co-expressed with enzymes were constructed and purified. SDS-PAGE analysis and Western blotting confirmed the presence of the target enzymes in shell samples (FIG. 18A-B) and the average copy numbers of enzymes per shell were estimated by Coomassie blue densitometry (Table 8) [Hagen, A., et al., Nature Communications 9: 2881 (2018); Nichols et al., Methods in Enzymology, 617, 155-186 (2019)].
Encapsulation of an enzyme into a protein shell is known to alter the enzyme's catalytic properties in some cases. […]

Substrate in series [2]: COc1ccccc1O
The series can be described thus: Steady-state kinetics of Cso-BMC encapsulated APEX2 (guaiacol oxidation). Format: biochemical, pea. The note with it: other: encapsulated APEX2 10 nM, guaiacol 0.20 to 2.0 mM, H2O2 1 mM, TBS-50/350 pH 8.0, mean with standard error, triplicates, 30.0 °C. On the procedure: as §1
To probe the capacity of the Cso-BMC for encasing enzymes of considerably different molecular sizes, an evolved pea cytosolic ascorbate peroxidase (APEX2), a 27.0 kDa monomer [Lam et al., Nature Methods 12(1): 51-54 (2015)], and E. coli beta-galactosidase (LacZ), a 466.0 kDa homotetramer, were chosen for encapsulation [Golan, et al., Biochimica et Biophysica Acta (BBA)—Bioenergetics, 1293(2): 238-242; Lam et al., Nature Methods 12(1): 51-54 (2015)]. […]

Experimental findings from patent US12667614B2, “Bacterial microcompartment virus-like particles” (National University of Singapore, priority 2020, dated 2026) are described below.

B1: Free APEX2 (evolved pea cytosolic ascorbate peroxidase), N-terminal His6, fused to S2CP(30); APEX2-S2CP(30), SEQ ID NO: 110 (Glycine max; A134P/E112K/K14D/W41F) (protein)
chain: MGSSHHHHHHSSGMGKSYPTVSADYQDAVEKAKKKLRGFIAEKRCAPLMLRLAFHSAGTFDKGTKTGGPFGTIKHPAELAHSANNGLDIAVRLLEPLKAEFPILSYADFYQLAGVVAVEVTGGPKVPFHPGREDKPEPPPEGRLPDPTKGSDHLRDVFGKAMGLTDQDIVALSGGHTIGAAHKERSGFEGPWTSNPLIFDNSYFTELLSGEKEGLLQLPSDKALLSDPVFRPLVDKYAADEDAFFADYAEAHQKLSELGFADAGSSKPEKPGSKITGSSGNDTQGSLITYSGGARG
The Km is the substrate concentration at which the rate is half of its maximum. In general, kcat refers to the maximal rate divided by the concentration of active sites. Turning to B1, in series [1], the Michaelis constant (Km) is 580 ± 70 µM, the catalytic constant (kcat) is 460 ± 20 s⁻¹ and the kcat/Km was 7.93 ± 1.02 × 10^5 (s^−1 · M^−1).

B2: APEX2 + shell: APEX2 (evolved pea cytosolic ascorbate peroxidase), N-terminal His6, fused to S2CP(30), SEQ ID NO: 110, encapsulated in Cso-BMC (Cso-PSIIH) … (protein)
chain: MGSSHHHHHHSSGMGKSYPTVSADYQDAVEKAKKKLRGFIAEKRCAPLMLRLAFHSAGTFDKGTKTGGPFGTIKHPAELAHSANNGLDIAVRLLEPLKAEFPILSYADFYQLAGVVAVEVTGGPKVPFHPGREDKPEPPPEGRLPDPTKGSDHLRDVFGKAMGLTDQDIVALSGGHTIGAAHKERSGFEGPWTSNPLIFDNSYFTELLSGEKEGLLQLPSDKALLSDPVFRPLVDKYAADEDAFFADYAEAHQKLSELGFADAGSSKPEKPGSKITGSSGNDTQGSLITYSGGARG
As for B2, the Km in series [2] came out at 790 ± 120 µM.
